These are literature values, as cited in publication PMC3883350.

Like-named read-outs stand apart in the source and are kept apart here.

Series [1] has as its target VIP (Homo sapiens) (UniProt P01282).
Series [2] deals with PACAP (Homo sapiens) (UniProt P18509).
Series [3] addresses VIP (Homo sapiens) (UniProt P01282). The source holds these as a separate data set.
The target in series [4] is PACAP (Homo sapiens) (UniProt P18509). This is another data set of the same source.
Series [5] addresses VIP (Homo sapiens) (UniProt P01282). This is another data set of the same source.
Series [6] addresses PACAP (Homo sapiens) (UniProt P18509). This is another data set of the same source.

Chain of UniProt P18509 (P18509 82-129): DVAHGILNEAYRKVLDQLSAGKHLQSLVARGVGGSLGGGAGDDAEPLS
Chain of UniProt P01282 (P01282 125-152): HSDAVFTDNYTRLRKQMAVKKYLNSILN

Broadly, the Kd is the concentration at which binding is half-saturated. On to PAC1 (from UniProt P41586), for which the results for the Kd with VIP (Homo sapiens) [1] and in the series with PACAP (Homo sapiens) [2] were above 500 nM and 0.5 nM, respectively.
For the substance VPAC1 (from UniProt P32241), the Kd with VIP (Homo sapiens) [3] and in the series with PACAP (Homo sapiens) [4] was 1 nM in each case.
Regarding VPAC2 (from UniProt P41587), the Kd with VIP (Homo sapiens) [5] and in the series with PACAP (Homo sapiens) [6] was 1 nM in each case.
